The results in this text go back to patent publication US20240383990A1.

This assay concerns the target ALK1 / BMPRII receptor pair (BMPR Type I receptor ALK1 and BMPR Type II receptor BMPRII) on cells (UniProt P37023). The experiment in a line: cell-based or functional assay.

ALK1 / BMPRII receptor pair (BMPR Type I receptor ALK1 and BMPR Type II receptor BMPRII) on cells, sequence (P37023 22-503 limits assumed, chain 1 of 2): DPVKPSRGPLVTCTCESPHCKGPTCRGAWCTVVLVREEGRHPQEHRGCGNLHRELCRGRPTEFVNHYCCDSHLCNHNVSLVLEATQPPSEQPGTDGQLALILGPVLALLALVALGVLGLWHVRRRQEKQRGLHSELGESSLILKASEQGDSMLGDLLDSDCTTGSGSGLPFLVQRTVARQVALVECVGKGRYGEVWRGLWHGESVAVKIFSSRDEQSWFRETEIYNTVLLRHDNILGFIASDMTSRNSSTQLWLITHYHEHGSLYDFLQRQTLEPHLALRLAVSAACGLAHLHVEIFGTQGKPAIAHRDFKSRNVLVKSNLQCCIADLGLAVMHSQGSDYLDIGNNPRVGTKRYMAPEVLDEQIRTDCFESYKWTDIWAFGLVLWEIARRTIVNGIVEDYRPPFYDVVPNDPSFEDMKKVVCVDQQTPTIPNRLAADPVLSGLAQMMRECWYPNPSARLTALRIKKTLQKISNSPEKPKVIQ
ALK1 / BMPRII receptor pair (BMPR Type I receptor ALK1 and BMPR Type II receptor BMPRII) on cells, sequence (Q13873 27-1038 limits assumed, chain 2 of 2, further chain): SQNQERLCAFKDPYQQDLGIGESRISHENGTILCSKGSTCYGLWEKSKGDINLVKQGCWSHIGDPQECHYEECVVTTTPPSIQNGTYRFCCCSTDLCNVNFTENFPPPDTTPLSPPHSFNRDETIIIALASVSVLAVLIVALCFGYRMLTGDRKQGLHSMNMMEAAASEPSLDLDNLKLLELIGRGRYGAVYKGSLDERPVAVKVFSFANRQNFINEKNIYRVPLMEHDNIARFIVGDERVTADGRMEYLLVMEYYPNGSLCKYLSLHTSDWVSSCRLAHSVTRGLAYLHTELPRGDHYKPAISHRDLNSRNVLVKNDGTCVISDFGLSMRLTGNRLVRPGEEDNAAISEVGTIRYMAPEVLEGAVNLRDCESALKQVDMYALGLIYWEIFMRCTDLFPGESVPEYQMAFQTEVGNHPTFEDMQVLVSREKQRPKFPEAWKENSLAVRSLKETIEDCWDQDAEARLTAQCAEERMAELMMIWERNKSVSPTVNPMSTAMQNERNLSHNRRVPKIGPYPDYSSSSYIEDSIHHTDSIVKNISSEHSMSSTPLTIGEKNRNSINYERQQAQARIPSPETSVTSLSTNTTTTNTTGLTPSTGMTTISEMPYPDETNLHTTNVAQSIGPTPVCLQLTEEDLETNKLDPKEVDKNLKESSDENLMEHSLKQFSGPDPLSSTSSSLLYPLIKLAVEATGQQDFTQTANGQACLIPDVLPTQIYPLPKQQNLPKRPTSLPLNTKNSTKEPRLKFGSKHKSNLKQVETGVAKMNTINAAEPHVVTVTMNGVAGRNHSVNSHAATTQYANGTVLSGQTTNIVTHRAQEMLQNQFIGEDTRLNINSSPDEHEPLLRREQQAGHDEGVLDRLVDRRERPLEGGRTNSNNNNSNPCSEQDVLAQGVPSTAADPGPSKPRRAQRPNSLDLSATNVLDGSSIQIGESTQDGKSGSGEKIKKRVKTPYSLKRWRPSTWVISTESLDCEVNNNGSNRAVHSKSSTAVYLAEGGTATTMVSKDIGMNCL

B1: BMP9 (ligand, UniProt Q9UK05 320-429, looked up)
chain: SAGAGSHCQKTSLRVNFEDIGWDSWIIAPKEYEAYECKGGCFFPLADDVTPTKHAIVQTLVHLKFPTKVGKACCVPTKLSPISVLYKDDMGVPTLKYHYEGMSVAECGCR
Molecule B1 returned an Agonist activity, % Emax BMP9 of 100 % Emax BMP9; an Agonist activity, EC50 of 0.02 nM; an Agonist activity, EMAX (RLU) of 2.64e+06 RLU; a pSMAD1 ELISA in HUVEC, RLU 15 minutes, at 0 nM (baseline) of 4.9 RLU. The same molecule gave a pSMAD1 ELISA in HUVEC, RLU 15 minutes, at 0.04 nM of 101 RLU; a pSMAD1 ELISA in HUVEC, RLU 15 minutes, at 0.2 nM of 102 RLU; a pSMAD1 ELISA in HUVEC, RLU 15 minutes, at 1 nM of 106 RLU; a pSMAD1 ELISA in HUVEC, RLU 60 minutes, at 0 nM (baseline) of 6.1 RLU. Moreover, the pSMAD1 ELISA in HUVEC, RLU 60 minutes, at 0.04 nM was determined as 81.8 RLU; the pSMAD1 ELISA in HUVEC, RLU 60 minutes, at 0.2 nM was 83.2 RLU; the pSMAD1 ELISA in HUVEC, RLU 60 minutes, at 1 nM turned out to be 81.8 RLU.

B2: BMP10 (ligand, UniProt O95393 317-424, looked up)
chain: NAKGNYCKRTPLYIDFKEIGWDSWIIAPPGYEAYECRGVCNYPLAEHLTPTKHAIIQALVHLKNSQKASKACCVPTKLEPISILYLDKGVVTYKFKYEGMAVSECGCR
B2: the Agonist activity, % Emax BMP9 was found to be 97 % Emax BMP9; the Agonist activity, EC50 was found to be 0.1 nM; the Agonist activity, EMAX (RLU) was 2.57e+06 RLU.
